These are literature values, as cited in publication PMC7920998.

The data set deals with Glu122. Nature of the data set: kinetics. Particulars: enzyme reacting with O2 (non-native substrate); further details not given.

Take “Cytochrome c-dependent nitric oxide reductase (cNOR, PdNOR) (Paracoccus denitrificans)”: the pKa is listed as ~ 6.6.
